According to patent US11702469B2, “Recombinant EGFL7, EGFL7 antibodies, and uses thereof” (Ohio State Innovation Foundation, priority 2017, dated 2023):
Entries after “also recorded” stand apart in the source; their conditions may differ.

Experiments:
[1] = system: BoyJ recipient mice; assay: Competitive repopulation BM transplantation of treated BM; assay type: in vivo; conditions: three weeks post-BMT, BM of treated mice vs IgG1 control
Description: FIG. 20A-20B. WT mice were treated with 50 mpk twice weekly of Parsatuzumab (@EGFL7) or IgG1 control. FIG. 20A. CBCs from mice harvested after treatment. FIG. 20B. Percent engraftment of treated BM (CD45.2+) transplanted into BoyJ recipient mice (CD45.1).
To assess the toxicity of Parsatuzumab on normal hematopoiesis, wild type (C57Bl/6J) mice were treated with Parsatuzumab (n=4) and IgG1 control (n=4) with the highest dose previously tested at 50 mpk twice a week for two weeks. Parsatuzumab targets both human and mouse EGFL7 protein. After two weeks of treatment, blood, spleen and BM were harvested and full phenotypic characterization was performed to assess toxicity. […] Full immunophenotypic examination of BM populations was also performed (data not shown due to space constraints). […] To functionally test the effect of Parsatuzumab on normal HSPCs, competitive repopulation BM transplantation (BMT) assays and CFU assays were performed. For competitive BMT, 2×10^6 WBM was harvested from Parsatuzumab and IgG1 treated mice (CD45.2) with 2×10^6 BoyJ (CD45.1) WBM and transplanted into lethally irradiated BoyJ recipients.

[2] = system: PARP1 and CASP3 cleavage; assay: PARP1 and Casp3 cleavage immunoblot, THP-1; assay type: cell-based, human; conditions: anti-EGFL7 treatment, western blots
Description: (§1) FIG. 24A-24G. EGFL7 prevents activation of NOTCH signaling in AML cells. (FIG. 24A) Overview of experiments using DLL4-FC and IgG-FC control coated plates to induce NOTCH activation. (FIG. 24B) THP-1 cells were pre-treated with 10 μM γ-secretase inhibitor (AVA), 100 μg/ml anti-EGFL7 antibody or 0.25 μM rEGFL7 for 30 min, then transferred to IgG-Fc or DLL4-Fc coated plates. After 4 h of incubation total RNA from THP-1 cells was extracted for qRT-PCR analysis of HES1 with β-ACTIN as internal control. ^###P<0.001 DLL4-FC vs IgG-FC; ***P<0.001 DLL4+AVA, DLL4+rEGFL7, and DLL4+anti-EGFL7 vs DLL4-FC. […] THP-1 cells were treated with the indicated concentration of anti-EGFL7 (@E7) then assessed for apoptosis using (FIG. 24D) AnnexinV+ staining and FACS; *P<0.05 (FIG. 24E) Immuno-blotting for PARP1 and Casp3 cleavage. (FIG. 24F) Cell differentiation was assessed by CD11B and CD14 staining 96-hours post anti-EGFL7 treatments; *P<0.05. (FIG. 24G) To determine whether activation of NOTCH by DLL4-Fc could be accentuated by anti-EGFL7 treatment, THP-1 cells were first treated with anti-EGFL7 (100 μg/ml) and then cultured on DLL4-FC or IgG-Fc coated plates and then assessed for apoptosis using AnnexinV+ staining and FACS. *P<0.05 DLL4-Fc and anti-EGFL7; vs DLL4-FC+anti-EGFL7. […]

[3] = system: THP-1 cells; assay: Apoptosis (AnnexinV+ FACS), THP-1; assay type: cell-based, human; conditions: anti-EGFL7 treatment
Description: as §1

B1: Parsatuzumab: Anti-human EGFL7 therapeutic antibody (Parsatuzumab) obtained from Creative Biolabs; blocking monoclonal antibody (antibody, chains of the INN, looked up, V domains shown)
VH: EVQLVESGGGLVQPGGSLRLSCAASGYTFIDYYMNWVRQAPGKGLEWVGDINLDNSGTHYNQKFKGRFTISRDKSKNTAYLQMNSLRAEDTAVYYCAREGVYHDYDDYAMDYWGQGTLVTVSS
VL: DIQMTQSPSSLSASVGDRVTITCRTSQSLVHINAITYLHWYQQKPGKAPKLLIYRVSNRFSGVPSRFSGSGSGTDFTLTISSLQPEDFATYYCGQSTHVPLTFGQGTKVEIK
donor chimerism / percent engraftment (CD45.1 vs CD45.2) [1]: no significant differences; also recorded: No significant changes
PARP1 and CASP3 cleavage [2]: increase in PARP1 and CASP3 cleavage
AnnexinV+ apoptotic cells [3]: increase in AnnexinV+
